Data as given in the supplement of paper PMC10724198.
± gives the standard deviation of the averaged measurements.

Test system: Saccharomyces cerevisiae
Assay: protein stability index of tFT-peptide fusion (C-terminal peptide) (PSI (0-1 scale)); higher = more stable (slower turnover)
Settings: genetic background: wild type; temperature: 30 C
Procedure: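 Multiplexed protein stability (MPS) profiling in S. cerevisiae. Random 12-aa peptides (tFT-X12 library) are fused to the C-terminus of a sfGFP-mCherry tandem fluorescent timer, after mCherry and a GGGS linker. Cells are FACS-sorted into 8 mCherry/sfGFP bins and deep-sequenced. The protein stability index (PSI) is the read-weighted bin average, scaled from 0 (unstable) to 1 (stable). Only peptides with >10 reads are reported; cells were grown at 30 °C in SC-His with glucose.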
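Note: PSI is a weighted mean of sequencing reads over stability bins, variants kept only with over 10 reads, mCherry proximal and sfGFP distal, peptide attached via GGGS linker.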

| Sequence | protein stability index |
| --- | --- |
| TKKKKKEKGDST | 0.702 ± 0.1 |
| PQSKWQWHSGLT | 0.692 ± 0.065 |
| SDTPTHVLGPPY | 0.716 ± 0.038 |
| SPSTSIPPLPAS | 0.73 ± 0.016 |
| SHFHSRDARRSP | 0.673 ± 0.0068 |
| LGGVKATGLGQL | 0.686 ± 0.04 |
| LTSWYGNKLVAV | 0.588 ± 0.029 |
| SPSSPPPSPPPA | 0.727 ± 0.016 |
| EGGKGGLVIVGG | 0.709 ± 0.11 |
| ELKGRQLGSNLK | 0.691 ± 0.045 |
| PRSSSPPPRSPP | 0.669 ± 0.016 |
| TPRYVGLIKINK | 0.676 ± 0.03 |
| NIAGHLHQPVQM | 0.712 ± 0.029 |
| ANKNDHNNQRQA | 0.789 ± 0.09 |
| FVCLRWAVGLGG | 0.6204 ± 0.0013 |
| MGHKDDRGFADR | 0.657 ± 0.013 |
| GVGGGEECHGVG | 0.556 ± 0.018 |
| SWYSRARMAGEG | 0.652 ± 0.0093 |
| THHTPKILNTKR | 0.708 ± 0.063 |
| WKKSEKTEHEQI | 0.653 ± 0.12 |
| PPVSHPSPFPLP | 0.653 ± 0.0095 |
| RGGGEWGKEDSQ | 0.705 ± 0.019 |
| IVVRPAGGGTQS | 0.663 ± 0.019 |
| WGGGGLRGGWDG | 0.738 ± 0.03 |
| TWSLYFSCRLFW | 0.54 ± 0.055 |

| Sequence | protein stability index |
| --- | --- |
| AGCGGIWGLWVL | 0.723 ± 0.05 |
| PPSPSPPSPPSP | 0.654 ± 0.032 |
| LPQVYSGIMRFV | 0.6243 ± 0.0036 |
| GEAVTGQRGATS | 0.71 ± 0.025 |
| ILFSSDLNSFSW | 0.744 ± 0.03 |
| PPHPKPPPAPPP | 0.527 ± 0.041 |
| RVLSCAFSTLWA | 0.711 ± 0.12 |
| LLPVFFPCFPLP | 0.696 ± 0.069 |
| ERRSGGHCRKSG | 0.685 ± 0.036 |
| HPPLAPQPPPPP | 0.711 ± 0.033 |
| EVSSGGQRVGRS | 0.763 ± 0.018 |
| WVKPVRAWTILR | 0.605 ± 0.025 |
| CPLPPPRPLLSA | 0.651 ± 0.026 |
| CAIGECRGAGVS | 0.679 ± 0.032 |
| KGENKRRVRKKN | 0.574 ± 0.014 |
| RLGNPPPFSTLG | 0.691 ± 0.075 |
| IKKKQKIPKNAK | 0.678 ± 0.013 |
| WVSWGCCSFLLT | 0.616 ± 0.0092 |
| APPPSPPPPPFP | 0.67 ± 0.064 |
| SSRPTLLSPPPA | 0.706 ± 0.012 |
| PLPRPLPPRVPF | 0.712 ± 0.013 |
| SYLRGPIVTGFG | 0.712 ± 0.077 |
| GLQIERAVGIRH | 0.708 ± 0.028 |
| WLTCICSSVAPL | 0.698 ± 0.042 |
| VGIPKEADKGGF | 0.704 ± 0.035 |

| Sequence | protein stability index |
| --- | --- |
| LPRSSGSTTPYP | 0.688 ± 0.025 |
| GMRAGLGRWRSM | 0.737 ± 0.1 |
| DIYGYENNIIKN | 0.708 ± 0.013 |
| CPRAPKTPISGI | 0.635 ± 0.049 |
| RTSPRSHVSRSL | 0.79 ± 0.056 |
| EALVVLGVGFFG | 0.651 ± 0.021 |
| GGGGGVWGVGRV | 0.66 ± 0.047 |
| YCGGRCGGWEIG | 0.698 ± 0.012 |
| PPDLSWPPAPLP | 0.824 ± 0.021 |
| PLSFSPSLRYPP | 0.659 ± 0.023 |
| LIQKQTGKKKKP | 0.7279 ± 0.0051 |
| VPSSCFLLDLPP | 0.648 ± 0.047 |
| ALSRSCPSGAFL | 0.727 ± 0.01 |
| RKKYPLMINGKR | 0.711 ± 0.0073 |
| TASPAHTPTKTR | 0.608 ± 0.051 |
| LGGGAGKRVCEG | 0.685 ± 0.014 |
| GASPLPSPADHL | 0.717 ± 0.14 |
| RARGQPTKDIAS | 0.643 ± 0.018 |
| AWGWGGTGSAGA | 0.71 ± 0.0097 |
| GCFTLLCFRRIL | 0.511 ± 0.012 |
| ALIGMFATVALI | 0.689 ± 0.099 |
| VPSAFLYLVGSL | 0.591 ± 0.01 |
| AWLLWGPVLRGI | 0.694 ± 0.051 |
| VGVLLGPVWFSV | 0.684 ± 0.042 |
| ENQGEKKKKKKR | 0.703 ± 0.022 |

| Sequence | protein stability index |
| --- | --- |
| RSPPTQGQTPTT | 0.696 ± 0.028 |
| TLSLILPQLPPL | 0.643 ± 0.071 |
| SPFPFLLTAPLA | 0.538 ± 0.0094 |
| PSLGLQAPTPCP | 0.679 ± 0.012 |
| PVASSPLLPSPS | 0.649 ± 0.061 |
| GARSARVWARAK | 0.664 ± 0.022 |
| RPSARSLVSPSP | 0.716 ± 0.025 |
| VLKRYILRNEKD | 0.697 ± 0.027 |
| GVEVSVFFFHFL | 0.576 ± 0.097 |
| GLAIRRDWLGWV | 0.745 ± 0.056 |
| LPFPSPLPSPPP | 0.702 ± 0.035 |
| GFSSVPFFPLSR | 0.7142 ± 0.003 |
| KTKKNKKKKINK | 0.692 ± 0.075 |
| VFLASFLVCPIS | 0.662 ± 0.057 |
| WGRCVRGGRPWG | 0.567 ± 0.021 |
| PDVNEATPKLWC | 0.694 ± 0.027 |
| PLPPPPPDILTP | 0.743 ± 0.013 |
| FLGLFHTVKKWQ | 0.684 ± 0.06 |
| RPTGHAPSRALT | 0.659 ± 0.062 |
| PPPDYPPTPAPS | 0.715 ± 0.054 |
| GPALLLHRLTAP | 0.684 ± 0.066 |
| PPSLPPLPFSTP | 0.7352 ± 0.0065 |
| SLTCRKQTVRVI | 0.53 ± 0.012 |
